{
  "source": "patent WO2025083273A1",
  "about": "(dated 2025)",
  "data": [
    {"target": "T1, human DR3 (TNFRSF25) expressed on cells (human, UniProt Q93038 25-417)", "T1 sequence": "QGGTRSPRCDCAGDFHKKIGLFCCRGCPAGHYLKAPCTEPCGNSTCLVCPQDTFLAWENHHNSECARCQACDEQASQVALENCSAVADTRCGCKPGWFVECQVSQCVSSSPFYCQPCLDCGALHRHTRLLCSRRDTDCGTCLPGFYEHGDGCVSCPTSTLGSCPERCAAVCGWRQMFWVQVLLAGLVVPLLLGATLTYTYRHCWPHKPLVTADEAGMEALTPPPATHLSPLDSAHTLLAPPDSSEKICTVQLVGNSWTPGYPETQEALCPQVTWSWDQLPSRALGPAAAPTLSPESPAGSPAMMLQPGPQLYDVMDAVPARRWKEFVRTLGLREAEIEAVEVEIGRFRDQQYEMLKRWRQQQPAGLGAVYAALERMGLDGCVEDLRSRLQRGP", "assay": "cell-based or functional assay", "units": {"Signal (FLU)": "FLU"}, "values": [
      {"binder": "VHg3/VLg5 (antibody, human IgG1, V domains shown) VH: EVQLVQSGGGLVKPGGSLRLSCAASGFKFSSYAMSWVRQAPGKGLEWLSTISDGDSYSYFPDSVKDRFIISRDNAKNSLYLQMNSLRVEDTGVYYCARDRIYGSVQYYAMDYWGQGTLVTVSS VL: EIVLTQSPGTLSLSPGERGTLSCRASESVEFSGTSLMQWYQQKPGQAPRLLIYAASNVESGIPDRFSGSGSETDFTLTISRLEPEDLAVYYCQQSRKLPYTFGQGTRLEIK", "Signal (FLU)": "2.43e+06"},
      {"binder": "VHg5/VLg5 (antibody, human IgG1, V domains shown) VH: QVQLQQSGGGLVQAGGSLRLSCAASGFTFTSYAMSWVRQAPGKGLEWVATISDGDSYSYFPDSVKDRFIISRDNAKNSLFLQMNSLRAEDTAVYYCARDRIYGSVQYYAMDYWGRGTLVTVSS VL: EIVLTQSPGTLSLSPGERGTLSCRASESVEFSGTSLMQWYQQKPGQAPRLLIYAASNVESGIPDRFSGSGSETDFTLTISRLEPEDLAVYYCQQSRKLPYTFGQGTRLEIK", "Signal (FLU)": "2.42e+06"},
      {"binder": "VHg9/VLg1 (antibody, human IgG1, V domains shown) VH: EVQLVESGGGLVKPGGSLRLSCAASGFTFSSYAMSWVRQAPGKGLEWVSTISDGDSYSYFPDSVKDRFTISRDNAKNSLYLQMNSLRAEDTAVYYCARDRIYGSVQYYAMDYWGQGTLVTVSS VL: DVVMTQSPDSLAVSLGERATINCRASESVEFSGTSLMQWYQQKPGQPPKLLIYAASNVESGVPDRFSGSGSGTDFTLTISSLQAEDVVVYYCQQSRKLPYTFGGGTKVEIK", "Signal (FLU)": "2.23e+06"},
      {"binder": "VHg1/VLg5 (antibody, human IgG1, V domains shown) VH: QVQLVQSGGGLVQPGGSLRLSCAASGFTFSSYAMSWVRQAPGKGLEWVSTISDGDSYSYFPDSVKDRFTISRDNSKNTLYLQMNSLRAEDTSVYYCARDRIYGSVQYYAMDYWGQGTLVTVSS VL: EIVLTQSPGTLSLSPGERGTLSCRASESVEFSGTSLMQWYQQKPGQAPRLLIYAASNVESGIPDRFSGSGSETDFTLTISRLEPEDLAVYYCQQSRKLPYTFGQGTRLEIK", "Signal (FLU)": "1.99e+06"},
      {"binder": "VHg1/mVL (antibody, human IgG1, V domains shown) VH: QVQLVQSGGGLVQPGGSLRLSCAASGFTFSSYAMSWVRQAPGKGLEWVSTISDGDSYSYFPDSVKDRFTISRDNSKNTLYLQMNSLRAEDTSVYYCARDRIYGSVQYYAMDYWGQGTLVTVSS VL: DIVLTQSPASLAVSLGQRATISCRASESVEFSGTSLMQWYQQRPGLPPKLLIYAASNVESGVPARFSGSGSGTDFSLNIHPVEEDDIAMYFCQQSRKLPYTFGGGTKLEIN", "Signal (FLU)": "2.43e+06"},
      {"binder": "VHg9/VLg6 (antibody, human IgG1, V domains shown) VH: EVQLVESGGGLVKPGGSLRLSCAASGFTFSSYAMSWVRQAPGKGLEWVSTISDGDSYSYFPDSVKDRFTISRDNAKNSLYLQMNSLRAEDTAVYYCARDRIYGSVQYYAMDYWGQGTLVTVSS VL: DVVMTQSPPSLPVTPGEPASISCRASESVEFSGTSLMQWYLQKPGQSPQVLIYAASNVESGVPDRFSGSGSGTDFTLKISRVEAEDVGVYYCQQSRKLPYTFGQGTRLEIK", "Signal (FLU)": "2.32e+06"}
    ]}
  ]
}
